Results: the supplement of paper PMC9170038

Tested on: MS2 coat protein
Test: apparent KD of MS2 coat protein; designed switch direction (-1 OFF switch, 1 ON switch): -1; higher = weaker reporter binding
Method in brief: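 Transcription of designed RNA switches on Illumina chips was done by stalled E. coli RNA polymerase. SNAP-549-labelled MS2 coat protein was then titrated in doubling steps from 0.7 or 1.5 nM to 3 µM, with steps of 0.8–1.5 h at the lowest and 10–20 min at the highest concentration. The per-design median over clusters of curve-fitted normalised fluorescence is reported as apparent KD.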

[1] = Eterna round: R95, input ligand: FMN 200 uM
[2] = Eterna round: R95, input ligand: microRNA oligo, concentration not stated
[3] = Eterna round: R95, input ligand: none
[4] = input ligand: microRNA oligo, concentration not stated

Sequence | apparent KD of MS2 coat protein (input ligand: FMN 200 uM) [nM] | apparent KD of MS2 coat protein (input ligand: none) [nM] | apparent KD of MS2 coat protein [2] [nM] | further results
CCAGCGUAUGUAAGGAUAUGCUGGUCGAAAGAUCAGCAGAAGGUACAUGAGGAUCACCCAUGUGUAAUCGUUGG [Mod of JL 5 - Jieux - Brourd's mod of Exclusion 4] (Eterna round: R97, puzzle: Brourd's mod of Exclusion 4) | 52.7 | 18.9 |  | 
GAUUAUGCGAGCUUUAGGGACAUGAGGAUCACCCAUGUUCGUCUUAUUAAUCUAGGUGCACUGACAUACCUAAAUCU [JMF 87] (puzzle: Sensor v3, turn-off variant 1) |  |  | 30 | apparent KD of MS2 coat protein [1]: 20.7 nM; apparent KD of MS2 coat protein [3]: 21.7 nM
UGAAAGUGAGGAUAUGGUGAGUAGUGCCUGAGCGCUGCUCACCAGAAGGCACAUGAGGAUCACCCAUGUAAAUG [Mat - Exclusion 4 - Mod of JL - D20] (puzzle: Exclusion 4) |  |  | 38.9 | 
CGCCCUGACGAAGGAUAUUAAGCUCAUACAUGAGGAUCACCCAUGUCCAUAGUAGUGUAUGCACCUGAGAAGGUCGUCAGCGCU [Eternabot solution 50] (Eterna round: R96, puzzle: Exclusion NG 2) | 213 | 257 |  | apparent KD of MS2 coat protein [4]: 240 nM
GCAUCCAAAGUGAGGAUAUACCUCUGGAUACAGAGGUAGAAGGCACAUGAGGAUCACCCAUGUUCCUAGGAUGC [Fiskers BMX 4 - 38] (puzzle: Brourd's mod of Exclusion 4) |  |  | 13.3 | 
UCGCUGCGAGGAUAUACGUGCGCGCGCGCGCGCGCGCGCGUACAUGAGGAUCACCCAUGUAGAAGGCGCGCUGC [Apr-15 SS2-1] (puzzle: Exclusion 2) |  |  | 12.5 | 
CCGCAAAUGCAGGAUAUCGUAUCGGAAACGAUACGAGAAGGGUAAACAUGAGGAUCACCCAUGUUCCUUAACGG [Mat - Exclusion 6 - Eli Mod - D98] (Eterna round: R96, puzzle: Exclusion 6) | 15.5 | 18.1 |  | apparent KD of MS2 coat protein [4]: 13.1 nM
AUAAUGUGAGGAUAUCAGUCGUACAGCGAUAGCUGUACGACUGAGAAGGCACAUGAGGAUCACCCAUGUGGUCA [E4/5-A4] (Eterna round: R97, puzzle: Exclusion 4) | 162 | 562 |  | 
GAGGCAUGCCGAGGUCCACACAUGAGGAUCACCCAUGUAAUGACAGGCUUUUUACUCGUUUUACCGCUAUCGCGUUC [Gedied] (puzzle: Sensor v3, turn-off variant 1) |  |  | 21.7 | apparent KD of MS2 coat protein [1]: 14.9 nM; apparent KD of MS2 coat protein [3]: 12.7 nM
CACCGUUACAGAGGAUAUGAUACAUGAGGAUCACCCAUGUAAUAAAUGAGAAUUUCGAAUGUACCUCAGAAGGCUGGAACCGGC [Ostricism 79 - Jieux - Exclusion NG 2] (Eterna round: R96, puzzle: Exclusion NG 2) |  |  |  | apparent KD of MS2 coat protein [4]: 31.1 nM
UUUGGUUUGCGAGGAUAUGCUUUUAGUAAGUUAGCAGAAGGCGCGUUACAUAGAACCUCUUGUUACAUGAGGAUCACCCAUGUU [JR_ExcNG1_Sub037] (Eterna round: R96, puzzle: Exclusion NG 1) |  |  |  | apparent KD of MS2 coat protein [4]: 77.3 nM
CAUGAUCUUCGGAUCAUGUACAUGAGGAUCACCCAUGUGACGAGUUACAUGUUUUACAAGCUUUUUGCUCGUCUUAU [Sensor v3 - Turn-off variant 1 - 14] (puzzle: Sensor v3, turn-off variant 1) |  |  | 99.4 | apparent KD of MS2 coat protein [1]: 40.3 nM; apparent KD of MS2 coat protein [3]: 47.4 nM
UAAAAGCUAGGAUAUACAUGAGGAUCACCCAUGUCAACCACACGGAUGCGCCGAGCAUGUAGAAGGAGCACCGG [Soora] (puzzle: Exclusion 3) |  |  | 17 | 
GGGUGUCCAGUGAGGAUAUCCAGCGCUCAGGCGCAGGAGAAGGCACAUGAGGAUCACCCAUGUAGCUGAAGAAA [Geenra] (puzzle: Brourd's mod of Exclusion 4) |  |  | 30.9 | apparent KD of MS2 coat protein [1]: 116 nM; apparent KD of MS2 coat protein [3]: 41.7 nM
CUUUUGUGAGGAUAUCAGUAGUAAAUAAAUAAAAUUACUACUGAGAAGGCACAUGAGGAUCACCCAUGUUCCUU [salish99_ex3_r3_089] (puzzle: Exclusion 4) |  |  | 15.3 | 
UUUUAACAUGAGGAUCACCCAUGUGAGGAUAUCGAAAUUUAUAUUUAUAUUAAUAUAACGAGAAGGCACAUUUU [JMF 79] (puzzle: Exclusion 1) |  |  | 58.2 | 
GGUCUGCGAGGAUAUACAUGAGGAUCACCCAUGUGAGAGAUACUAGUGAGGUCGAUUGGUAGAAGGCGCGGACG [JL-ex3-2.03 salish99 mod] (puzzle: Exclusion 3) |  |  | 124 | apparent KD of MS2 coat protein [1]: 13.1 nM; apparent KD of MS2 coat protein [3]: 115 nM
UUUUUGUCAGGAUAUGAUUAGAUCUACUUCGGUAGAUCUAAUCAGAAGGGACAUGAGGAUCACCCAUGUAGUUU [Ex4 - 3 - 12] (puzzle: Exclusion 4) |  |  | 35.2 | 
ACAUGAGGAUCACCCAUGUGAAACCAAUGGCUGACUUUGAGCUAGGAUAUUUGUGCAUAUCAAACAAAGAAGGAGCAUUACUGG [Deportation 98 - Jieux - Exclusion NG 3] (Eterna round: R96, puzzle: Exclusion NG 3) |  |  |  | apparent KD of MS2 coat protein [4]: 30.2 nM
AACCUCGUAGCAGGAUAUUAGAGCUCCCGCAAAUGAGAAGGGCUACGAAACACUUGAGGAUCACCCAAGUACCGUGGUCCUCUA [Mutated MS2 EX1.8] (Eterna round: R96, puzzle: Exclusion NG 1) | 12.7 | 20.7 |  | apparent KD of MS2 coat protein [4]: 17.6 nM
UUCCUACUUGAGGAUCACCCAAGUCAGGAUAUCCAUAGCCGACACUCUUUUCGGAACGGGAGAAGGGACUUGGU [Tiisatbi] (Eterna round: R97, puzzle: Exclusion 1) | 97.5 | 37.2 |  | 
UUUUAACAUGAGGAUCACCCAUGUGAGGAUAUCGAAAUUUAUAUUAAUAUUAUUAUAACGAGAAGGCACAUUUU [JMF 39] (puzzle: Exclusion 1) |  |  | 62.2 | 
GGUCUACAUGAGGAUCACCCAUGUAAGGAUAUCGUCACUGGAGCUGCGGCUCCAGUGACGAGAAGGUACGUAAU [E1/12-A3] (Eterna round: R97, puzzle: Exclusion 1) | 33.7 | 32.4 |  | 
ACGAUGACCGAAAAGUGUCAACUGACAUGAGGAUCACCCAUGUAGGAUAUGGCUACGAAAAGUAGUCAGAAGGACAAGUCAUCA [Omei Exc(NG) 3 Av5] (Eterna round: R96, puzzle: Exclusion NG 3) | 12.4 | 14 |  | apparent KD of MS2 coat protein [4]: 8.52 nM
AACCAGCUAGGAUAUGCUUGCGCGUGUUCUGGUUAUAAUCGACUUGAGGAUCACCCAAGUAGAAGGAGCUGGCG [EX2 #54] (Eterna round: R97, puzzle: Exclusion 2) | 1360 | 445 |  | 
